Data taken from PMC9801508, “A Cell-Permeant Nanobody-Based Degrader That Induces Fetal Hemoglobin” (ACS Central Science, 2022).

Tests used:
[1] = molecular target: T1, BCL11A extended zinc finger domain (exZnF23) (Homo sapiens, UniProt Q9H165); assay: pull-down; wt2D9 and BCL11A (Figure S1b); details in the Supporting Information
T1 construct: Monomeric by SEC-MALS; also called exZnF23A; BCL11A exZnF23; source: E. coli, purified

[2] = molecular target: T1, BCL11A extended zinc finger domain …; assay: pull-down; read by SDS-PAGE (Figure 1C); the legend names only an SDS-PAGE analysis; who was held is not told; methods in the Supporting Information; conditions: both partners purified
[3] = molecular target: T2, endogenous, full-length BCL11A (Homo sapiens (HUDEP-2 cells), UniProt Q9H165); assay: pull-down; purified 2D9 or ZF5.3-2D9 added into the lysate of HUDEP-2 cells; endogenous BCL11A detected (the legend calls it immunoprecipitation); conditions: one partner purified
T2 construct: BCL11A, transcription factor and repressor of fetal globin genes, endogenous in HUDEP-2 cells; also called endogenous BCL11A; source: endogenous, HUDEP-2 lysate; endogenous, in HUDEP-2 cells
T2 sequence (Q9H165 whole entry): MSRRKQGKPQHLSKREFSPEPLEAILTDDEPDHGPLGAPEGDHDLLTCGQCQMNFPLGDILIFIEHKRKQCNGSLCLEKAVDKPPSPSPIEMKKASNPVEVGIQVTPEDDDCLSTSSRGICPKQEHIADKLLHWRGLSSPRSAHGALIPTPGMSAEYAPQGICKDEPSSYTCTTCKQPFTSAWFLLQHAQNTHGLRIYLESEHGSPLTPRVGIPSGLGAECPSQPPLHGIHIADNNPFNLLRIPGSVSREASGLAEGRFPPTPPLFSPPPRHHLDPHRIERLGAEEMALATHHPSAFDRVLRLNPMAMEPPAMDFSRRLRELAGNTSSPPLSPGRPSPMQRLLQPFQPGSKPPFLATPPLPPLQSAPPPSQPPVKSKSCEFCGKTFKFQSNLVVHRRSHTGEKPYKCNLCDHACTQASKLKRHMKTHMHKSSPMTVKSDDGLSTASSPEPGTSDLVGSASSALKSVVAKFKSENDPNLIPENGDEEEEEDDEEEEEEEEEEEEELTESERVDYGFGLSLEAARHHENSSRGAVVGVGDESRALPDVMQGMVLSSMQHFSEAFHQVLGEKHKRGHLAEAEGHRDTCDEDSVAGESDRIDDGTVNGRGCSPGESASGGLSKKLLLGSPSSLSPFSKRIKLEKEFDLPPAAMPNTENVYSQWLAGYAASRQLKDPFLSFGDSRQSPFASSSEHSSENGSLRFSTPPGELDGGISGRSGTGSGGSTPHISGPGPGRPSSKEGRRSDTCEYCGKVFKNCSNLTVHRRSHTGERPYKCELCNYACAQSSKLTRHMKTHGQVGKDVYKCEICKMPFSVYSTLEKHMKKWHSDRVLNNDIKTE

T1 sequence (Q9H165 whole entry, looked up, the tested form may be a part): as the sequence (Q9H165 whole entry) above

binding result [1]	binding result [2]	binding result [3]	Binder
binds	–	–	Nanobody wt2D9 (initial hit) (VHH, initial synthetic nanobody hit of the yeast surface display screen; parent of 2D9 (2D9_V102G): as the chain of PDB 7UTG with V instead of G at 102; source: E. coli) VHH: QVQLVESGGGLVQAGGSLRLSCAASGSIFVNNAMGWYRQAPGKERELVAAISASGGSTYYADSVKGRFTISRDNAKNTVYLQMNSLKPEDTAVYYCAADQDVYPYEYWGQGTQVTVSS
–	binds	–	Nanobody 2D9_W108L (VHH, wt2D9 is as 2D9 of PDB 7UTG but with V at 102; By its name a single mutant of wt2D9, a sibling of 2D9_V102G; the reversion at 102 against PDB 7UTG is worked out from the names) VHH: QVQLVESGGGLVQAGGSLRLSCAASGSIFVNNAMGWYRQAPGKERELVAAISASGGSTYYADSVKGRFTISRDNAKNTVYLQMNSLKPEDTAVYYCAADQDVYPYEYLGQGTQVTVSS
–	binds	binds	Nanobody 2D9 (2D9_V102G) (VHH, also called Nb 2D9; source: purified) VHH: QVQLVESGGGLVQAGGSLRLSCAASGSIFVNNAMGWYRQAPGKERELVAAISASGGSTYYADSVKGRFTISRDNAKNTVYLQMNSLKPEDTAVYYCAADQDGYPYEYWGQGTQVTVSS
